Results published in patent US20080199503A1, “Pharmaceutical Compositions Preparation of Peptides, Secreted by the Snake Venom Glands, Particularly of Bothrops Jararaca, Vasopeptidases Inhibitors, Evasins, Their Analogues, Derivatives and Products Associated, Thereof, for Development of Applications and Use in Chronic-Degenerative Diseases” (priority 2002, published 2008).
Square brackets hold non-standard residues; d marks the D form. Ends that are not written are not given here. Peptide text beside a SMILES is read from it. pGlu = O=C1CC[C@@H](C(=O)O)N1

How the values were obtained:
[1] = target: C-terminal catalytic site of the Angiotensin I converting enzyme (recombinant ACE) (Homo sapiens, UniProt P12821); assay: Inhibition of the C-terminal catalytic site of recombinant ACE (fluorogenic substrate); assay type: biochemical
Description: (§1) The fractions from purification were submitted to mass spectrometry analysis to conforming the Evasins molar mass after purification. • The enzyme assays for the recombinant ACE inhibition were conducted using the substrate Mca-Ala-Ser-Asp-Lys-DpaOH, at 25° C., in a 50 mM Hepes buffer (pH 6.8), 200 mM NaCl and […] ZnCl2.

[2] = target: N-terminal catalytic site of the Angiotensin I converting enzyme (recombinant ACE) (Homo sapiens, UniProt P12821); assay: Inhibition of the N-terminal catalytic site of recombinant ACE (fluorogenic substrate); assay type: biochemical
Description: as §1

[3] = system: anesthetized normotensive rats (WKY) blood pressure; assay: Potentiation of the bradykinin hypotensive effect on anesthetized rat blood pressure; assay type: in vivo; settings: for Bk potentiation(%): hypotension increase of a single bradykinin dose after 200 nmol of potentiator i.v., anesthetized rats; for Duration time: time to reduce the potentiating effect by 50%, 200 nmol/rat i.v., unit not given, minutes
Description: The potentiating activity of the bradykinin hypotensive effect was tested in anesthetized rats. Normotensive male rats (WKY) were anesthetized using pentobarbital sodium (Hypnol® Cristália, 50 mg/kg, intraperitoneal) and placed on a controlled-temperature board for maintaining the body temperature between 36.5° C. and 37° C. A polygraph coupled to a physiological transducer was used. The blood pressure ranging values were obtained by integrating the areas limited by the baseline pressure and comparing them to the values obtained from control assays. In in vivo assays, the potentiating activity of Evasins on the hypotensive effect of bradykinin on anesthetized rat blood pressure was observed. Two parameters were determined for comparison of the potentiating effects of bradykinin on the anesthetized rat blood pressure (n=5):
1) Intensity of the potentiating effect of the hypotensive activity of bradykinin on the anesthetized rats blood pressure: This value was defined as the hypotension percentage (%) increase caused by a single dose of bradykinin obtained after the infusion of 200 nmol of potentiator. 2) Potentiating effect length: Time required to reduce the potentiating effect on a single dose of bradykinin by 50%.

[4] = target: neutral endopeptidase (recombinant NEP) (Homo sapiens, UniProt P08473); assay: Fluorometric assay of recombinant NEP inhibition; assay type: biochemical
Description: The fluorometric assays for the recombinant NEP inhibition were conducted using the substrate Abz-RL-EDDnp in a 50 mM Tris-HCl buffer, pH 7.5, at 37° C. […] The Evasins were pre-incubated with the enzyme before the substrate addition.
The inhibition constants (Ki) values were determined by means of the ratio of the apparent inhibition constant (Ki(app)) and the substrate Km (Salvesen and Nagase, 1990). In: Proteolytic enzymes a practical aproach, Beynon and Bond Eds Oxford University Press, England, 87-88).

[5] = target: recombinant neutral endopeptidase; assay: fluorogenic substrate (Abz-RL-EDDnp) inhibition assay, recombinant NEP
[6] = target: T1, recombinant Angiotensin I converting enzyme, N-terminal catalytic site
T1 chain: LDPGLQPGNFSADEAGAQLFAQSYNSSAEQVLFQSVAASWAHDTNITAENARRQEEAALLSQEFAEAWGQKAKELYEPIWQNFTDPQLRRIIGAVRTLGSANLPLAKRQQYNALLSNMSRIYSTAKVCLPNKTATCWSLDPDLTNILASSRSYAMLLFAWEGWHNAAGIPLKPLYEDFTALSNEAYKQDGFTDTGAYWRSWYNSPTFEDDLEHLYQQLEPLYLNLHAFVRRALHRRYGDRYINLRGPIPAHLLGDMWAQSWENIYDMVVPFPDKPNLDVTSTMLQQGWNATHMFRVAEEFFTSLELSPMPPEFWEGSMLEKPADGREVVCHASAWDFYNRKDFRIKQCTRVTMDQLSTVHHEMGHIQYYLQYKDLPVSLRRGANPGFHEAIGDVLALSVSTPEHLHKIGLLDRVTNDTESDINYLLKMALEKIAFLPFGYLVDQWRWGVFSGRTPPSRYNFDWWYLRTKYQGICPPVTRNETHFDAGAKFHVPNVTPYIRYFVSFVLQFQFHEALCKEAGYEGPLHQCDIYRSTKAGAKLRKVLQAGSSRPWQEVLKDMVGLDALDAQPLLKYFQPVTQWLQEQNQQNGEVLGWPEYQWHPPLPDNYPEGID

[7] = target: T2, recombinant Angiotensin I converting enzyme, C-terminal catalytic site
T2 chain: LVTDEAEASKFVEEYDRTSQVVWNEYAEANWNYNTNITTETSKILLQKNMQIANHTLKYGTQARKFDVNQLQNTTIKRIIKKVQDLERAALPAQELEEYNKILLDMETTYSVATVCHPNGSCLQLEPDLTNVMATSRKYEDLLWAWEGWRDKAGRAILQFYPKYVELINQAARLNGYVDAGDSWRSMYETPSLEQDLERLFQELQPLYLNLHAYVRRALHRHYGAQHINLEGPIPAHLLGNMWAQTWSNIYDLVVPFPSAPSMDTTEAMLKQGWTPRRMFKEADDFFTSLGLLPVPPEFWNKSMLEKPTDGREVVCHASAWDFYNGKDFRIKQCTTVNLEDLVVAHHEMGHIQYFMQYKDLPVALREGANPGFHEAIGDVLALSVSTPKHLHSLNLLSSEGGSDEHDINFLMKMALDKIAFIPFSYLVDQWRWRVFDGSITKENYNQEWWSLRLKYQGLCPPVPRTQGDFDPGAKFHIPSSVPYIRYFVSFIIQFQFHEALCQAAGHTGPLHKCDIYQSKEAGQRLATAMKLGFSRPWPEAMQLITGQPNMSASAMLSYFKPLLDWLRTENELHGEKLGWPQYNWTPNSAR

Sequence of neutral endopeptidase (recombinant NEP) (P08473 whole entry, species assumed): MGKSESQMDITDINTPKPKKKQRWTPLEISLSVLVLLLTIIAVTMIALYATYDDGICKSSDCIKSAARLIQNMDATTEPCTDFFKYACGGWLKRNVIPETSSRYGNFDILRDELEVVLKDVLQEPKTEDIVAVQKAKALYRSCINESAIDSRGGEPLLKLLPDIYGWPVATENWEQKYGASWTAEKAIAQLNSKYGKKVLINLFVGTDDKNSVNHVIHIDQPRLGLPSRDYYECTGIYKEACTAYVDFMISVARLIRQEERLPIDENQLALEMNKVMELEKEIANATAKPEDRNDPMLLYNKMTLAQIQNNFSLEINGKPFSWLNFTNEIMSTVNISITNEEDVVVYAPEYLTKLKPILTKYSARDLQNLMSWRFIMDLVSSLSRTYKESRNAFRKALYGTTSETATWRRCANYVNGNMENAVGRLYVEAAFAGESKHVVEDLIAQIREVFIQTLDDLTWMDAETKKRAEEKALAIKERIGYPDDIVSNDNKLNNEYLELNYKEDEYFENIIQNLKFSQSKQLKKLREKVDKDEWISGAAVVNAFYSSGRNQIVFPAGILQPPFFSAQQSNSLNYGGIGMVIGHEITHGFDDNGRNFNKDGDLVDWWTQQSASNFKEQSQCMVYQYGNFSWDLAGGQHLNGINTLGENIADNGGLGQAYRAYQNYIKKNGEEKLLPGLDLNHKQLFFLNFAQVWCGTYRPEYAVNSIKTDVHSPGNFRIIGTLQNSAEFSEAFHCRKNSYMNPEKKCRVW

Molecule | Ki [5] [nM] | Ki [6] [nM] | Ki [7] [nM] | further results
CC[C@H](C)[C@H](NC(=O)[C@H](CC(N)=O)NC(=O)[C@@H]1CCCN1C(=O)CNC(=O)[C@@H]1CCCN1C(=O)[C@H](Cc1c[nH]c2ccccc12)NC(=O)[C@H](CO)NC(=O)[C@@H]1CCC(=O)N1)C(=O)N1CCC[C@H]1C(=O)N1CCC[C@H]1C(=O)O [EVASIN-10a, <ESWPGPNIPP] ([pGlu]SWPGPNIPP-OH; C-terminus assumed) | – | – | – | Ki [1]: 33 nM; Ki [2]: 130 nM
CC[C@H](C)[C@H](NC(=O)[C@@H]1CCCN1C(=O)[C@@H]1CCCN1C(=O)CNC(=O)[C@@H]1CCCN1C(=O)[C@H](C)NC(=O)[C@H](CCCNC(=N)N)NC(=O)CNC(=O)[C@@H]1CCC(=O)N1)C(=O)N1CCC[C@H]1C(=O)N1CCC[C@H]1C(=O)O [EVASIN-11b, <EGRAPGPPIPP] ([pGlu]GRAPGPPIPP-OH; C-terminus assumed) | – | – | – | Bk potentiation(%) [3]: 164.3%; Duration time [3]: 90; Ki [1]: 57 nM; Ki [4]: 476000 nM; Ki [2]: 3000 nM
CC[C@H](C)[C@H](NC(=O)[C@@H]1CCCN1C(=O)[C@@H]1CCCN1C(=O)[C@H](Cc1c[nH]cn1)NC(=O)[C@@H]1CCCN1C(=O)[C@@H]1CCCN1C(=O)[C@H](CCCNC(=N)N)NC(=O)[C@H](C)NC(=O)[C@@H]1CCC(=O)N1)C(=O)N1CCC[C@H]1C(=O)N1CCC[C@H]1C(=O)O [EVASIN-11e, EARPPHPPIPP] ([pGlu]ARPPHPPIPP-OH; C-terminus assumed) | – | – | – | Bk potentiation(%) [3]: 41%; Duration time [3]: 35
CC[C@H](C)[C@H](NC(=O)[C@H](CCC(N)=O)NC(=O)[C@@H]1CCCN1C(=O)[C@H](CCCNC(=N)N)NC(=O)[C@@H]1CCCN1C(=O)[C@H](Cc1c[nH]c2ccccc12)NC(=O)[C@H](C)NC(=O)[C@H](Cc1c[nH]c2ccccc12)NC(=O)CNC(=O)[C@@H]1CCC(=O)N1)C(=O)N1CCC[C@H]1C(=O)N1CCC[C@H]1C(=O)O [EVASIN-12a, <EGWAWPRPQIPP] ([pGlu]GWAWPRPQIPP-OH; C-terminus assumed) | – | – | – | Ki [1]: 25 nM; Ki [4]: 106000 nM; Ki [2]: 25 nM
EVASIN-10c (peptide) | 253000 | – | – | –
[pGlu]GGWPRPGPEIPP [EVASIN-13a] | 473000 | 50 | 50 | –
[pGlu]GWAWPRPQIPP [EVASIN-12a] | 106000 | 25 | 25 | –
[pGlu]DGPIPP [EVASIN-7a] | 492000 | 70000 | 40000 | –
EWPRPQIPP (pyroglutamic acid (<E) at position 1 (N-terminus)) [EVASIN-9a] | 86000 | 100 | 1 | –
[pGlu]GRAPHPPIPP [EVASIN-11c] | 589000 | 2000 | 40 | –
[pGlu]SWPGPNIPP [EVASIN-10a] | – | 130 | 33 | –
[pGlu]WGRPPGPPIPP [EVASIN-12b] | 150000 | 5 | 150 | –
[pGlu]GRAPGPPIPP [EVASIN-11b] | 476000 | 3000 | 57 | –
[pGlu]KWAP [EVASIN-5a] | 550000 | 399 | 1280 | –
